B1: Aster-B: purified recombinant ASTER domain of mouse Aster-B (protein, UniProt Q80TI0 224-560, looked up, fragment)
chain: NELGLTSDDEDYVPPDDDFNTMGYCEEIPIEENEVNDSSSKSSIETKPDASPQLPKKSITNSTLTSTGSSEAPVSFDGLPLEEEVMEGDGSLEKELAIDNIIGEKIEIMAPVTSPSLDFNDNEDIPTELSDSSDTHDEGEVQAFYEDLSGRQYVNEVFNFSVDKLYDLLFTNSPFLRDFMEQRRFSDIIFHPWKKEENGNQSRVILYTITLTNPLAPKTATVRETQTMYKASQESECYVIDAEVLTHDVPYHDYFYTINRYTLTRVARNKSRLRVSTELRYRKQPWGFVKTFIEKNFWSGLEDYFRHLETELTKTESTYLAEIHRQSPKEKASKSSA
modifications: ASTER domain
B2: Aster-A: purified recombinant ASTER domain of mouse Aster-A (protein, UniProt Q8VEF1 261-576, looked up, fragment)
chain: AADHSQEPSPVGSRRGRVTPNLSRASSDADHGAEEDKEEQTDGLDASSSQTVTPVAEPLSSEPTPPDGPTSSLGPLDLLSREELLTDTSNSSSSTGEEGDLAALLPDLSGRLLINSVFHMGAERLQQMLFSDSPFLQGFLQQRKFTDVTLSPWSSDSKCHQRRVLTYTIPISNQLGPKSASVVETQTLFRRGPQAGGCVVDSEVLTQGIPYQDYFYTAHRYCILGLARNKARLRVSSEIRYRKQPWSLVKSLIEKNSWSGIEDYFHHLDRELAKAEKLSLEEGGKDTRGLLSGLRRRKRPLSWRGHRDGPQHPDPD
modifications: ASTER domain
B3: Aster-C: purified recombinant ASTER domain of mouse Aster-C (protein, UniProt Q8CI52 206-528, looked up, fragment)
chain: MEHLLSVEENVQPRSPGRSSVDDAGERDEKFSKAVSFTQESVSRASETEPLDGNSPKRGLGKEDSQSERNVRKSPSLASEKRISRAPSKSLDLNKNEYLSLDKSSTSDSVDEENIPEKDLQGRLYINRVFHISAERMFELLFTSSHFMQRFANSRNIIDVVSTPWTVESGGNQLRTMTYTIVLSNPLTGKYTAATEKQTLYKESREAQFYLVDSEVLTHDVPYHDYFYTLNRYCIVRSAKQRCRLRVSTDLKYRKQPWGLIKSLIEKNSWSSLESYFKKLESDLLMEESVLSQSIEDAGKHSSLRRRRRTLNRTAEPVPKLSS
modifications: ASTER domain

Assay: in vitro cholesterol transfer between heavy and light liposomes
Type: biochemical
Settings: purified recombinant ASTER domain, 15 min under agitation
Protocol: Values are means±SEM. […] Input (Ctrl) served as a control for LXR enrichment. […] Values are means±SEM. […] Results values are means±SD. […] Results values are means±SD. […] Values are means±SEM.
Liposomes were generated by drying lipids in glass tube under liquid nitrogen. Lipid films were then resuspended in 50 mM hepes, 120 mM potassium acetate buffer ±0.75M sucrose where indicated. Lipid suspensions were then vortexed and incubated for 30 minutes at 37° C. (2 mM total lipid concentration). Suspensions were then snap frozen in liquid nitrogen and thawed rapidly at 37° C. five times. Light liposomes were prepared by extruding through 100 nm polycarbonate filters. Heavy liposomes containing sucrose were prepared by extruding through a 400 nm polycarbonate filter, then washing several times in 50 mM hepes, 120 mM potassium acetate buffer with no sucrose. Liposome sizes were confirmed using an N4 Dynamic Light Scattering instrument.
To test the ability of the ASTER domain to transfer cholesterol between membranes, an in vitro assay was optimized with heavy and light liposomes. Purified recombinant ASTER domain was incubated with “heavy” PC/dansyl-PE liposomes and “light” PC/cholesterol/dansyl-PE liposomes under agitation for 15 min. The liposomes were separated by centrifugation, and cholesterol levels were determined. Dansyl-PE intensities of heavy liposomes were used to normalize the cholesterol values.

Molecule | cholesterol transfer to the heavy liposomes
B1 | efficiently facilitated cholesterol transfer
B2 | efficiently facilitated cholesterol transfer
B3 | efficiently facilitated cholesterol transfer

From US20210255205A1, “COMPOSITIONS AND METHODS FOR TREATING METABOLIC DISEASE” (THE REGENTS OF THE UNIVERSITY OF CALIFORNIA, priority 2018, published 2021)
